Where no end group is shown, it is not given here. Me3 = trimethyl
B1: MORC4 ATPaseCW cassette (aa 29-486) (domain or fragment, human, UniProt Q8TE76 29-486, looked up)
chain: GIRLSTMSPRYLQSNSSSHTRPFSAIAELLDNAVDPDVSARTVFIDVEEVKNKSCLTFTDDGCGMTPHKLHRMLSFGFTDKVIKKSQCPIGVFGNGFKSGSMRLGKDALVFTKNGGTLTVGLLSQTYLECVQAQAVIVPIVPFNQQNKKMIITEDSLPSLEAILNYSIFNRENDLLAQFDAIPGKKGTRVLIWNIRRNKNGKSELDFDTDQYDILVSDFDTEEKMTGGVTSELPETEYSLRAFCGILYMKPRMKIFLRQKKVTTQMIAKSLANVEYDTYKPTFTNKQVRITFGFSCKNSNQFGIMMYHNNRLIKSFEKVGCQVKPTRGEGVGVIGVIECNFLKPAYNKQDFEYTKEYRLTINALAQKLNAYWKEKTSQDNFETSTVARPIPKVPDQTWVQCDECLKWRKLPGKIDPSMLPARWFCYYNSHPKYRRCSVPEEQELTDEDLCLSKAKKQE
notes: ATPase domain and CW domain of human MORC4, aa 29-486, cloned into pDEST15; Homodimer in the crystal with AMPPNP and Mg2+; source: E. coli Rosetta2 (DE3) pLysS or BL21 (DE3) RIL, purified (glutathione agarose, GST tag cleaved, SEC)

Tests used:
[1] = molecular target: T1, MORC4 CW domain K460A/R462A/R463A (human, UniProt Q8TE76 417-475, K460A | R462A | R463A); assay: NMR titration; 1H,15N HSQC of 15N-labelled CWKRR titrated with H3K4me3 peptide; 20 mM Tris-HCl pH 6.8, 150 mM NaCl, 2 mM DTT; conditions: both partners purified
T1 construct: CW-type zinc finger domain of human MORC4, aa 417-475, triple mutant; Uniformly 15N-labelled in the NMR experiment; also called CWKRR; MORC4 CWKRR; source: E. coli, grown and purified as wild-type protein (glutathione agarose, GST tag cleaved)
T1 sequence (looked up): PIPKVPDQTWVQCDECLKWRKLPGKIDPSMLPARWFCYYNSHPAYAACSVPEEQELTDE

[2] = molecular target: B1; assay: other fluorescence titration; tryptophan fluorescence, 25 °C; ATPaseCW in the presence of 601 DNA (ATPaseCW:601 DNA complex), increasing histone peptide; conditions: both partners purified
[3] = molecular target: T2, MORC4 CW domain (aa 417-475) (human, UniProt Q8TE76 417-475); assay: other fluorescence titration; tryptophan fluorescence, 25 °C; 0.5-1 µM ATPaseCW or CW in 20 mM Tris pH 6.8, 100 mM NaCl, 2 mM DTT, increasing histone peptide; conditions: both partners purified
T2 construct: CW-type zinc finger domain of human MORC4, aa 417-475, cloned into pGEX 6p-1; Uniformly 15N-labelled in the NMR experiments; unlabelled protein was further purified by size exclusion chromatography; also called WT MORC4 CW domain; source: E. coli Rosetta2 (DE3) pLysS or BL21 (DE3) RIL, purified (glutathione agarose, GST tag cleaved)
T2 sequence (looked up): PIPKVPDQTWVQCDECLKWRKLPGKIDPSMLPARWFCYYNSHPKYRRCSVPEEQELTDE

[4] = molecular target: B1; assay: as above; conditions: both partners purified
[5] = molecular target: the molecule itself; assay: crystal structure; ATPaseCW (aa 29-486) with AMPPNP and Mg2+, 2.9 Å; crystallised after incubation with H3K4me3 peptide and 2 mM AMPPNP

Row | Binder | binding result [1] | Kd [2] [nM] | Kd [3] [nM] | Kd [4] [nM] | binding result [5]
1 | ARTK(Me3)QTARKSTG (peptide, UniProt P68431 2-13, looked up, N-terminal tail of histone H3, aa 1-12) [histone H3K4me3 peptide (aa 1-12 of H3)] | binds | 40 | 112 | 180 | 
2 | ARTKQTARKSTG (peptide, UniProt P68431 2-13, looked up, N-terminal tail of histone H3, aa 1-12; also called H3K4; unmodified H3 peptide) [unmodified histone H3 peptide (aa 1-12 of H3)] |  |  | 2700 |  | 
3 | B1 |  |  |  |  | binds
